Measurements taken from the NTF2 design screens of Basanta et al. (2020).

Assay: protease stability score; higher = more stable; yeast display proteolysis, trypsin and chymotrypsin;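 note: log10 excess protease needed over predicted unfolded state with 0 meaning unfolded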
Work on “DHETHMEKFFEDQQKIRNKGDEDKVRNLFDPNARATYGDKTYQGREQIDKFENDVLRRVDHVNVQLRNVRVHNGRADFDARVVFKVNGRHERNHIRITVEINNGRIVIQSVHYG” yielded a protease stability score of 0.141.
In the case of “DHETQNDLATEIVRVYKHGNPDDWSKLVDPNARVVYGDKEIHGREDAMSFMKKLRNQADSIKVKDYKVKNGRVDVVVIIVVNGRHATLQFTIQFHNGKATDVKFDPKQWHELQK”, the protease stability score is reported as 1.28.
“DHEVAKTMMEEWQKALENGDDKKLKELYDPDGEWEADDEQDQGTEVIEKLMEKVKKQGLKFQVRKAKVEGDKFTVVYDLHVGNKTATFEVEVHVEGGRIKKVKAKADEEAKKLITEG” showed a protease stability score of 1.98.
“DHEVHKLFDDFLHAEETGNEEQLTELVDENAQIQVGDKEVHGRDHINKMHADLRRTMDLKLKDYKVNNNGNNVDVDMKYINEDNGKPSKVRMRAIYTFQNGRIKNVHQNRDQ” showed a protease stability score of -0.366.
Sequence “DHHARTQAEHLLEALRNGNEDQLMKLIDPNARFRYGDKEVHGSEQFREQVHTLKREIRMDVKEYRFTVEGNRLVVKVTAILDTNGKPDTRDVDNHAIVHNGKIKQFTVDNKS” has a protease stability score of -0.134.
For “DHHDRKLFKHLITALRDGDEDKVKKNVDPNVKIDIGDTTWNGREQWAKDVREKREEMRVDIKLKRLTASNGRVTAKLRVRNKHDGRPHQHEFTVEFRRSNGRWKEIHVDDDK”, the protease stability score was -0.008.
In the case of “DHHHARELLTRVIRALITGDEKKVADQIDPNAEFQYGDKTFHGRDQVRRFVKEWKKHVDHVELKTYDARGDKAKAIFVVDHNGHKKQVVLQLKVENGRVKSIRITDG”, the protease stability score is reported as 1.74.
For “DHKAVEMVEQMWKNLNEGDFKKFTRLIDKDVKYVYGDRRVEGREELVNRFHRKMREMRFQIVRMSLTDHGDKVVVNYTVQFNKNGRPDRKVQRLLVKVENGTIKELRVQEHQ”, the protease stability score was 1.62.
“DHKDQSKMVKDLNRVMQHGDSKQMRSMVDENAEVQYGDNQVHGRDQIREMEKRIRRRVDKVKFDSVDVEGNKVRIQYVVNVNGQNIEQVLHVTFKNGKIKNQEYRVRDPRLEKQFKS” gave a protease stability score of 0.237.
In the case of “DHKEARDVAQTMMHLLKHGDFEQIVRNADPNAHFVVGDKEYHGRDNLRKVLKRLHDQVDHISFRTYKVDEDTAKLDATVQINGRNYRMDVLVHFHNGRIKDLNIKVTDEDTQREADK”, the protease stability score is reported as 2.08.
“DHKEETKKKDEARRVLETNDPRKKLKLMDPNARANVGDKRYHGREELKRRADEERKRVDHAEVKRVEANGDHIIVDFVFVVNGKTKRNSLNINMHNGRVKEVNVESR” gave a protease stability score of -0.143.
“DHKEHAEKFAQQLDEAHKKNDPRQFLRLMDKDVRVSVGDKTVHGKENIRKQLEDLTKQADSIEFKVKSIRVTGDKVRLEFEVVYRHNGRHSRQTVVMYLKLHNGRAVIKSVQVK” showed a protease stability score of 0.159.
Work on “DHKELKKYLEQVEKNDFDKLKKNVDEDARVNYGNKTWHGREQVQKYWDDLKKRIDHFDVTHMTVKGDKLHYIVRMNVNGQNFEHKVVIEIQNGKIKQVDARYRDEKQKEKLEKVAD” yielded a protease stability score of 0.868.
“DHKHLQEQARRLVDALVTGDPEEAANLADPNARARIGDKTIHGREQFRNAMQRFSNQADHVQVDHFTVQGDKVQVKMSINVNGQSFDVVMVARMDNGHIRHIRFDPDQIRQVQG” showed a protease stability score of 0.052.
“DHKLHHQLHRLIKALQTGDPDKIRELVDPNVEFVVGEKRYKGREDYVTDFKERLDHIRLDNDVRDVEVHGNKMRANIQTEVQDDGQPRTYQVRLDASAHNGKVKSLKVDKKP” gave a protease stability score of -0.059.
In the case of “DHKQEATKNLKKFEDVMKTNDPEKAKNLADENVRVQVGDKTVHGKEKMVSTMLEEMRKVDHFSVHLQEVSFHGDKLNLSYEFVLNQNGKERKDVRVFHAANHNGRFLVEELHQG”, the protease stability score is reported as -0.322.
Work on “DHNDHARRLFEQWVQAIEHNDPDQIRKNLPPNVKVTIGDKTISGRENVVRTVKRELHRVDHIRIQLDHVEVQGDKIVLRANVRQDHNGQNRHFTLRLVANTFNGREQFIDIQLN” yielded a protease stability score of -0.121.
“DHQASEKLSQLWKALNTGNPEQFSKNADPHVRHHVGDTSIQGREQFNEQIKREQKEMRVQIQVQSIHVRGDKIRVRAVYTFHINGQPRKDTFVAKFVVKNGRIKKASIRIDPRKVKERNS” showed a protease stability score of 0.11.
“DHQDARKVRKNFEDNNFESFKSMFDENAEVRVGDKELHGKENIRDQIRKEKEQIDHVQYRSFHVQGEKVDLKYEFQVNGRHIDVRASAELKNGRIKTHSVEVTTEEDKKLLKEVLQ” gave a protease stability score of -0.271.
With “DHQELAEKWFRTFVTNQERGDEESLVKMADKDVRLHIGDKTIHGREQFHHWIQELRRRVDHQSMTVRHIDVQGDKIRIDAEAVFNVNGRNDKFKIDIEAEIQGDKVVLKRIIFN” the protease stability score was 1.63.
Work on “DHQESAHRLHNTLKTIWSENDPDKYSELIDENVHVDVGDKKFRGRDEAKKLAEHIMRRADHIEIRLTSIDVHGNTIRIVVELNFNHDGTSSSVTVVVVLENHNGNFRVKKIRES” yielded a protease stability score of 0.017.
“DHQVVRSFMDVLETGDWDKLKDLVDPNAKMFYGNKDLTGRDAQTHFSEVMKRRVDEIKIDSYDMKGDSAWADFVLVFNGVEIRFILRVQFHNGNVISMRFEVTDPKQKTQLDRAAS” gave a protease stability score of 0.714.
With “DHRAEEAFRRWEEALKTGDPDQAKEQVDPNARFEYGDESIRGMDNVQKWLRTQMEKQRIDVKVKDVKTRPGHVEISAHVVWEHNGTPNSATFVQQNTATGDDVKHVKVQEHK” the protease stability score was -0.27.
In the case of “DHRAFELAKNILEAIRTNDPDTVKHQLDKNATLRYGEFEVHGREDASRFVETLIRKMRVEFDIKDYHVHGDSAVMDADVKVERNGRPDTRKLNVNVNVHNGKMSHIVFELRG”, the protease stability score is reported as 0.693.
In the case of “DHRAIHLVRENLDARRHNDSKKAREMADKDATFHIGDRFIHGMDSFVKTLTDENREMRIEIERMSYNDRPGRVEVKQDVRENHNGSPKRFTYHAEMHVQGDHVRTQTEHRTD”, the protease stability score is reported as -0.281.
“DHRALSQVEQFMNALQQGDEKRLMELADPNVKIIIGDKDVHGREEWDRQVHKRRHEIQYEVRRVKMHVNGDTVHVKIRAVATINGKPFEVEYTANFKIDNGHITHIDWQLPDEYLKRVKS” gave a protease stability score of 0.062.
Sequence “DHRAVEVIKEMFKALQTGDERRIVEMADKDATATVGDKRVHGMKEAAHDIATEFNEMRFQLSIKRVQHSGNNVKADVEATFHHNGKPRKVQVVIVLRLHNGKVQEMSIRNDG” has a protease stability score of 1.17.
“DHRQQVRDIFKEMQDARRKGNEKTLQKLVDPNAKAEYGDKTYHGRENVAKMLLDEAKRVDHFEVHIKTFSIKNGTARVHADVVVKHDGQKRSTDVFYVFRDHNGQMLLVRARTQ” showed a protease stability score of 1.38.
Sequence “DHRVEEVFRRYLEAFQDNNPEKAMRLVDPNAKLSVGDTTLDGREDIKKFVRTRHNEQRVKYEIKQIEVDGDKIRVVADLKNQHNGTPDRDTVKMSASVRNGKIKDLKQTTDK” has a protease stability score of -0.132.
Work on “DHSDAEQVHRAIEENNFDELVDLADENVSVTIGDYTLHGREDFKHYQEVLKRQVDNVEFKTIDIQGDKIDRTVEATVNGRRYVARIVVKVKNGKIKSQKVHATDEKQNEQLRENLK” yielded a protease stability score of -0.043.
“DHSEVTDVFRKLVKVLRTGDESTAAELFDEDVEFEIGDKTYKGREEAHDLLRQFQDMADHVQLNDVRVQGNKVHAEFRADVNGRELHFTQSAEVHNGKIKKVVIRFTNEEQYREIHS” showed a protease stability score of 1.59.
Sequence “DHSKHLTNVIKRMQRLFKHGNFSEVAKQADKDVEVRVGDKTYNGRDQYVDSQRKIEHQVDNADLKFQHVDNQGDKIDVIYEFVVVHNGRHEKTTEQAVLSLHNGRVRATKIHDS” has a protease stability score of -0.102.
In the case of “DHSQLEIVIEWVKALQEGDPDKAKKNMDKNVKLDIGDKRLEGRDEVRKEMETMKKSARFDLHIDSYNVHGDHAELRVTFRNDHNGRPKKDRNTIRATAHNGRITYLSVEHTG”, the protease stability score is reported as 0.708.
Sequence “DHTAARIAKEIMENQDKGDEDRLRKLLDKDVRLKYGDKEIHGREHAARTLKRERRQIRIDRRIRHVEIQGDEVSIEFDMHVQHNGKPRDRKAVMVFRMQGDKLEEMTQDNTK” has a protease stability score of 0.191.
Work on “DHTADRIIRNLMDALNQNDEDKAVKLMDENVRFRIGDKEYQGRERWKKLLQDWNKHASIRYTVDSMDRRGEKVHVKFELKVNINGNPVTVRVTVEFEIRNGKIKSAVYEMDPDDAKEVWS” yielded a protease stability score of 0.925.
“DHTELETLARRMVDAMRTGDPDKLAELADPNVKVTYGDKSVHGHEQFTKQMKEFVDQYDHVRVERLKIEGDKVHADLNAEHNGRSSRFIMLITVKNGRVKHLKFKNR” showed a protease stability score of 0.472.
“DHTEVKKQNEQVRKALTQGDPKTMKKMFDPNVKLQVGEKSYRGHKDLQKWAEEMHKRVDHARVDSVHARGNHVTVDVVFNINGREKRLTLRVSYHNGRINEVHMTDG” showed a protease stability score of 0.745.
For “DHTIDEVFKQFETAKNDNDPDQLKKNADPNVDYTVGDQFVEGREHAADDIRRRREQQRNEIRSLRHSVQGNDIDVSVDMEVEHNGKPSDFTQRIDVVAHNGKIKHQTAHQEG”, the protease stability score was -0.505.
“DHTKEARQVRRFVHALETGDPDRAASQLDKNAKVTVGDKRVHGRENVRTLMQEFIREADHFRLRDMRDDGEKFNLLIEFEVNGKRLRMHIDIVISNGTMKVVRFDPNVVKRMEN” gave a protease stability score of 0.144.
Work on “DHTKIARRLMEDLTDARRHNDPHHVKNLLDKDVKIRVGDKSVDGEEEATKQMIERQRRADHIEMRIKSVSTHNGQLRIIFDVREVHNGQEHTDREEVQFDNENGKVRMVNVQQK” yielded a protease stability score of -0.056.
“DHTKQAETVARQMLEQLRDGNPEELKNMFDENVEADIGDTRYHGRESMVEFWQTILTRVDRNRLHIVDVQVQGNKIIVRVRVSFDRNGRQKEEEYVIVVRVNNGHYTADVVSLT” gave a protease stability score of 0.772.
With “DHTVLEKAATALKQGDTDKMNKLADENVKMKVGDKEFHGRQQVNTALKRIKEQVDHRSIRSIENRGNRVTIDANVVVNGKHVDVNFILVVHNGRLKMFQIRVTDPQVHRRLSEIMS” the protease stability score was 0.722.
Sequence “DKDAAQLFHQYLEAKKHNNEDQLRENMDPNVQWTIGDKVITGREEAAKRMVDENREQRVEISHMQVHDNNGHAVFRADVRYKHNGKPSRSRFVVRVQARNGKIHSVKVERHS” has a protease stability score of 0.076.
“DKDAARRFNEMLQQIHTGNEQEVSKLVDEDADVKVGEKDVHGREQIHSEVKKMRDELSYRVQVNEFDDRGDKIRFNIRVRKNTNGKPKTSRNNLTVVVHNGRIKEVKAESDG” gave a protease stability score of 0.095.
In the case of “DKDAARRVQEMIRQQQTGNPTEVEEQADKDVEFKVGDKVVHGRRELKKEVETHKRESRLEVQKIEIKDHGDKAKLIIYFRVHENGEPRKRTVQVRAKYQNGKVKMIEVDSTK”, the protease stability score is reported as -0.006.
Sequence “DKDALRVFERFLEAVETNDPKQVQEQADPNAHFDIGDRTYHGMDEIATKMFEEQEKIHLSVQIRDVKDHGDKAVIKAEFSSERNGKPHSKTVRIEVQAHNGQMVKLVMTDDQ” has a protease stability score of -0.309.
Work on “DKDAQKKATEFLTAWEQGNESQLQKLMDPNAKVEIGDKVIDGREDWNRWIRERLKRMRFEIKSVDVQVHGDNVDINIDARVNHNGKPDRMTAKFVMRVHNGRIKSMTQHNDK” yielded a protease stability score of 1.29.
“DKDAVKRFEELLRALDTNNSEQVKDLLDKNVQFRVGDKVIHGMEEAVRRQIQHNNEIRVEKEIKSIDDHNGRIHVDMTREWEHNGQPRSEKVKFTIEMHNGRVQVDNQKVTS” showed a protease stability score of -0.098.
For “DKDDFKEAEHILRTGDPDEWSKMVDPNARAEVGDEEIHGKEEFDRWMQKKKKRVDHEQVKSVDFHGDKWRVVLVFNVNGRQADVVMVMQVHNGRLVYQVVRFRDHQVKDVVRKRLS”, the protease stability score was 0.336.
“DKDDLRRMHQLVTRNNPQKFKQQADKDAKVQYGDKTVTGMTDAARQMVKFWRQADHIEVKHVDVNGDKLNVVMRMNVNGRNLHMVVYYVVSNGHVRSASVTFTDPHQQEEFEKNAS” gave a protease stability score of 0.316.
